In patent publication US20210009671A1:

Target: Recombinant human TNFα (R&D Systems) (human) (UniProt P01375)
Sequence (P01375 77-233 limits assumed): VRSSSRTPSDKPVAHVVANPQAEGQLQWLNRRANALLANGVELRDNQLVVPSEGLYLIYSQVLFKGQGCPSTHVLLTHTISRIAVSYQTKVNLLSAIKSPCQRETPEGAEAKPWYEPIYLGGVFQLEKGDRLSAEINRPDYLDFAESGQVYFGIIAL

etanercept (Fc fusion)
IC50, TNFα-induced Caspase 3 activity in U937 cells: 0.144 nM
